Source: PMC10576006 (2023)

Assays:
[1] = molecular target: T1, human wildtype KRas4B 1-169 (C-terminal truncated) (human, UniProt P01116-2 1-169); assay: BLI; 2:1 heterogeneous model, binding type 2 (69-99 %)
[2] = molecular target: T1, human wildtype KRas4B 1-169 (C-terminal …); assay: BLI; 1:2 bivalent model

Kd [1]: 1.62 µM
Kd [2]: 48.2 µM
B1: GST-Rgl2^RA (Ras association domain of human Rgl2, residues 643-740, fused with GST) (domain or fragment)
chain: GPGASDCRIIRVQMELGEDGSVYKSILVTSQDKAPSVISRVLKKNNRDSAVASEYELVQLLPGERELTIPASANVFYAMDGASHDFLLRQRRRSSTAT
